Assays:
[1] = biological target: KSHV protease (Kaposi's sarcoma-associated herpesvirus) (UniProt Q2HRB6); settings: cited from earlier work
[2] = biological target: the molecule itself; experiment: fluorescence-based substrate cleavage kinetics assay

KSHV protease (from UniProt Q2HRB6)
Kd [1]: 1700 nM

B1: HCMV protease (HCMV Pr) (protein)
chain: MTMDEQQSQAVAPVYVGGFLARYDQSPDEAELLLPRDVVEHWLHAQGQGQPSLSVALPLNINHDDTAVVGHVAAMQSVRDGLFCLGCVTSPRFLEIVRRASEKSELVSRGPVSPLQPDKVVEFLSGSYAGLSLSSRRCDDVEAATSLSGSETTPFKHVALCSVGRRRGTLAVYGRDPEWVTQRFPDLTAADRDGLRAQWQRCGSTAVDASGDPFRSDSYGLLGNSVDALYIRERLPKLRYDKQLVGVTERESYVKA
Kd [2]: 1300 nM

From article PMC3157250 (2011)
